Results: PMC4847008

Target: MT1-MMPmCh ΔDKV (UniProt P50281)

tyrosine phosphorylation (4G10 blot) of precipitated MT1-MMPmCh by recombinant GST-LIMK1 in an in vitro kinase assay, ΔDKV against WT: 60 % decrease
Substance: LIM Kinase-1 (from UniProt P53667 1-647) (natural protein)
